Data published in patent US20020132974A1, “BETA SHEET FORMING PEPTIDES AND GELS MADE THEREOF” (priority 1995, published 2002).

Experiments:
[1] = response of peptide gels to chemical switches (pH, salt, surfactant, solvent); type: physicochemical
Source text: As mentioned, the gels of the invention are susceptible to chemical triggers which result in changes in the properties of the gels so that they switch from, for example, a first fluid state to a gel state or vica versa.
Addition of salt causes the network to contract and phase separate as a more concentrated gel phase. Changing the polarity of the solvent, ie making it more polar (water) or non-polar ( chloroform), preserves the β-sheet structure, but the gel network is destabilised and precipitation of the peptide occurs. In strong hydrogen-bonding donor solvents (like hexafluoroisopropanol), the peptide adopts an α-helical conformation (FIG. 3b) and there is no gelation. Solvents containing arornatic groups cause destabilisation of β-tapes by 20-30% and disruption of the gels. This is believed to be due to competition between intermolecular peptide aromatic side-chain interactions and the aromatic groups of the solvent Acetylation at the N-terminus and amination at the C-temiinus of the 27-residue peptide results in a preference for the a-helical conformation and gels are not formed. It seems that favourable interactions between β-nanotapes and solvent are important for gel stabilisation. By appropriate peptide design, peptides can be produced which will form nanotapes and gels in a variety of solvents, including water. For example, peptides derived from the Drosophila Toll receptor protein, from the Alzheimer amyloid peptide and from desmin filaments and from the β-domain of the leu lysozyme (SER-1). Chemical switches also include changes in pH, for example, the hydrophilic peptide AcNH-Gln-Ala-Thr-Asn-Arg-Asn-Thr-AspGly-Ser-Thr-AspTyr-Gly-Ile-Leu-Gin-Ile-Asn-Ser-Arg-CONH2 (SER-1) forms a gel at neutral and acidic pH, whilst it switches to a neutonial fluid at pH higher than 11.

[2] = gel and β-tape formation of peptides in solvents; type: physicochemical
Source text: Compatibility of the β-sheet surface and the solvent are also essential for gelation as opposed to peptide precipitation out of solution. For example, K24 forms β-tapes with both polar and apolar groups on their surfaces. Thus, they can form gels in solvents with intermediate polarity, corresponding to values of relative dielectric constants, εγ=εr=24-62.
In organic solvents such as ethanol, methanol and 2-chloroethanol we have discovered that the aforementioned peptide sequences self-assemble to provide elongated tapes approximately 8 nm wide and a single molecule in thickness.

Question: Which results are given for “NH2-Lys-Leu-Glu-Ala-Leu-Tyr-Ile-Leu-Met-Val-Leu-Cly-Phe-Phe-Gly-Phe-Phe-Thr-Leu-Gly-Ie-Met-Leu-Ser-Tyr-Ile-Arg-CO2H [K27]”?
Answer: effect of added 1,1,1,3,3,3-hexafluoropropanol-2 on the gel ([1]; addition of 50% v 1,1,1,3,3,3-hexafluoropropanol-2): destroys the gel; effect of added water on the gel ([1]; addition of 50% v water): destroys the gel; effect of sodium dodecylsulfate (SDS) on the gel ([1]; molar ratio 1 K27-350 SDS): destroys the gel

Question: With “NH2-Lys-Leu-Glu-Ala-Leu-Tyr-Val-Leu-Gly-Phe-Phe-Gly-Phe-Phe-Thr-Leu-Gly-Be-Met-Leu-Ser-Tyr-Rle-Arg-CO2H [K24]” as the substance, how does the “effect of lithium chloride on the gel” value ([1]; molar ratio 1 peptide-7 lithium chloride) read?
Answer: contracts

Question: And the “drop of the fraction of β-sheet structure” value ([1]; solvents containing aromatic groups)?
Answer: 20-30%

Question: What about the “gel formation in solvents of higher or lower polarity” value ([2]; polarity above or below dielectric constant 24-62, β-sheet structures poorly soluble, precipitate) of the same substance?
Answer: gel is not formed

Question: What about the “relative dielectric constant of solvents in which gels are formed” value ([2]; solvents or solvent mixtures of intermediate polarity) of the same substance?
Answer: 24-62
